Results on 1 variant are retold here after IntAct's records for PubMed 23911326.

The labels stand for the following.
B1: Metabotropic glutamate receptor 5 (Mus musculus), Q3UVX5 (parent)
chain: MVLLLILSVLLLKEDVRGSAQSSERRVVAHMPGDIIIGALFSVHHQPTVDKVHERKCGAVREQYGIQRVEAMLHTLERINSDPTLLPNITLGCEIRDSCWHSAVALEQSIEFIRDSLISSEEEEGLVRCVDGSSSFRSKKPIVGVIGPGSSSVAIQVQNLLQLFNIPQIAYSATSMDLSDKTLFKYFMRVVPSDAQQARAMVDIVKRYNWTYVSAVHTEGNYGESGMEAFKDMSAKEGICIAHSYKIYSNAGEQSFDKLLKKLRSHLPKARVVACFCEGMTVRGLLMAMRRLGLAGEFLLLGSDGWADRYDVTDGYQREAVGGITIKLQSPDVKWFDDYYLKLRPETNLRNPWFQEFWQHRFQCRLEGFAQENSKYNKTCNSSLTLRTHHVQDSKMGFVINAIYSMAYGLHNMQMSLCPGYAGLCDAMKPIDGRKLLDSLMKTNFTGVSGDMILFDENGDSPGRYEIMNFKEMGKDYFDYINVGSWDNGELKMDDDEVWSKKNNIIRSVCSEPCEKGQIKVIRKGEVSCCWTCTPCKENEYVFDEYTCKACQLGSWPTDDLTGCDLIPVQYLRWGDPEPIAAVVFACLGLLATLFVTVIFIIYRDTPVVKSSSRELCYIILAGICLGYLCTFCLIAKPKQIYCYLQRIGIGLSPAMSYSALVTKTNRIARILAGSKKKICTKKPRFMSACAQLVIAFILICIQLGIIVALFIMEPPDIMHDYPSIREVYLICNTTNLGVVTPLGYNGLLILSCTFYAFKTRNVPANFNEAKYIAFTMYTTCIIWLAFVPIYFGSNYKIITMCFSVSLSATVALGCMFVPKVYIILAKPERNVRSAFTTSTVVRMHVGDGKSSSAASRSSSLVNLWKRRGSSGETLRYKDRRLAQHKSEIECFTPKGSMGNGGRATMSSSNGKSVTWAQNEKSTRGQHLWQRLSVHINKKENPNQTAVIKPFPKSTESRGQGAGAGGGSGPGAAGAGSAGCTATGGPEPPDAGPKALYDVAEAEERFPAAARPRSPSPISTLSHLAGSAGRTDDDAPSLHSETAARSSSSQGSLMEQISSVVTRFTANITELNSMMLSTAAAPGPPGTPICSSYLIPKEIQLPTTMTTFAEIQPLPAIEVTGGAQPATGPSPAQETPAGAEAAPGKPDLEELVALTPPSPFRDSVDSGSTTPNSPVSESALCIPSSPKYDTLIIRDYTQSSSSL
partner: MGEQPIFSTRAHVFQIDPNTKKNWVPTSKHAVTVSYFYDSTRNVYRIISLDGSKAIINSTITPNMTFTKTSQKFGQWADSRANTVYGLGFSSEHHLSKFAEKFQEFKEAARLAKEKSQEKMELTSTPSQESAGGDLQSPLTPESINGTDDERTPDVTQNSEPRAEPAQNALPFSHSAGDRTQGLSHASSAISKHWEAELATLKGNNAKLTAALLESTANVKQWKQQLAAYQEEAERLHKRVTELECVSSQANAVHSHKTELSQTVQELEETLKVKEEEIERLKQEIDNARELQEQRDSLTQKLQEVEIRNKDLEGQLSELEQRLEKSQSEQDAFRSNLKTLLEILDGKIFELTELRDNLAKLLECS

In the assay the parent is B1. As to conditions: with Homer1, Q9Z214-1.
Turning to F1160R, the “effect of a mutation on the interaction” value is listed as “disrupting interaction strength”.
